Values of other authors, collected in PMC7109197.
pKd: −log10 of the molar value. Read-outs that look alike come from different tables or passages of the source.

Columns and labels:
Experiment in all cases: NMR
[1] = biological target: cardiac troponin C N-domain (Homo sapiens) (UniProt P63316)
[2] = biological target: cardiac troponin C N-domain (Homo sapiens) (UniProt P63316); remark: listed apart in the source
[3] = biological target: cardiac troponin C CTD (Homo sapiens) (UniProt P63316)
[4] = biological target: cardiac troponin C CTD (Homo sapiens) (UniProt P63316); remark: listed apart in the source

| pKd [1] | pKd [2] | pKd [3] | pKd [4] | Substance |
| --- | --- | --- | --- | --- |
| 3.22 | 3.43 | – | – | cTnI switch peptide switch peptide (from UniProt P19429) |
| – | – | 5.52 | > 6.00 | cardiac troponin I 34-71 (from UniProt P19429) |
